This test addresses CNTF-Rα/CNTF binary complex (human) (UniProt P26441). Put plainly: SEC.

In turn, gp130 (D1-D3) (domain or fragment) registered a stoichiometry N of 1.

For the substance “gp130 (D2-D3) (from UniProt P40189 23-918) (domain or fragment)”, the stoichiometry N amounted to 1.
